Results on two molecules are retold here after patent US20130280279A1, “PHARMACEUTICAL COMPOSITION OF A COMPLEX OF AN ANTI-DIG ANTIBODY AND DIGOXIGENIN THAT IS CONJUGATED TO A PEPTIDE” (HOFFMANN-LA ROCHE INC., priority 2011, published 2013).

Test [1] addresses digoxigenated nucleic acids (siRNA-Dig). Put plainly: SPR (Biacore) binding to digoxigenated nucleic acids. The following applies: 25° C., read-out: Kd towards digoxigenated nucleic acids (siRNA-Dig). Here is the method: For that, binding properties of the recombinant <Dig> derivatives were analyzed by surface plasmon resonance (SPR) technology using a Biacore T100 or Biacore 3000 instrument (GE Healthcare Bio-Sciences AB, Uppsala). This system is well established for the study of molecule interactions. It allows a continuous real-time monitoring of ligand/analyte bindings and thus the determination of association rate constants (ka), dissociation rate constants (kd), and equilibrium constants (KD) in various assay settings. SPR-technology is based on the measurement of the refractive index close to the surface of a gold coated biosensor chip. Changes in the refractive index indicate mass changes on the surface caused by the interaction of immobilized ligand with analyte injected in solution. […]
Anti-mouse IgG antibody was immobilized on the surface of a CM5 biosensor chip in the same fashion as described above. […] The samples to be analyzed were diluted in HBS-P (10 mM HEPES, pH 7.4, 150 mM NaCl, 0.005% Surfactant P20) and injected at a flow rate of 5 μl/min. […] Signals were detected at a rate of one signal per second. […]
Anti-mouse and anti-human IgG antibodies were immobilized on the surface of a CM5 biosensor chip in the same fashion as described above. The samples to be analyzed were diluted in HBS-P and injected at a flow rate of 5 μl/min. […]
A general note: Surface plasmon resonance follows binding to a sensor surface in real time, without labels.

The subject of test [2] is DIG-myoglobin. Put plainly: SPR binding to mono-digoxigenated protein DIG-myoglobin. Here is the method:
Further SPR studies were performed in which the binding affinity of the humanized <DIG>-IgG, IGF1R-DIG and the murine <DIG>M-19-11 was compared in binding to a mono-digoxigenated protein DIG-myoglobin.

B1: humanized DIG-IgG: humanized IgG with the binding specificity of murine <Dig> 19-11 (antibody, V domains shown)
VH: QVQLVESGGGLVKPGGSLRLSCAASGFTFSDYAMSWIRQAPGKGLEWVSSINIGATYIYYADSVKGRFTISRDNAKNSLYLQMNSLRAEDTAVYYCARPGSPYEYDKAYYSMAYWGQGTTVTVSS
VL: DIQMTQSPSSLSASVGDRVTITCRASQDIKNYLNWYQQKPGKAPKLLIYYSSTLLSGVPSRFSGSGSGTDFTLTISSLQPEDFATYYCQQSITLPPTFGGGTKVEIKR
As for B1, the Kd (usually a measure of binding affinity in units of concentration) in test [1] came to 12 nM.

B2: murine DIG-IgG 19-11: monoclonal murine <Dig> IgG1 kappa antibody from hybridoma clone 19-11 (antibody, V domains shown)
VH: EVQLVESGGGLVKPGGSLKLSCAVSGFTFSDYAMSWIRQTPENRLEWVASINIGATYAYYPDSVKGRFTISRDNAKNTLFLQMSSLGSEDTAMYYCARPGSPYEYDKAYYSMAYWGPGTSVTVSS
VL: DVQMTQSTSSLSASLGDRVTISCRASQDIKNYLNWYQQKPGGTVKLLIYYSSTLLSGVPSRFSGRGSGTDFSLTITNLEREDIATYFCQQSITLPPTFGGGTKLEIK
For B2, the “affinity to DIG-Myo compared with the humanized derivatives” value in test [2] is reported as “clearly better”. The Kd in test [1] was found to be 0.269 nM.
